T1: Recombinant His-Norbin (His-tagged rat Norbin protein) (rat, UniProt O35095 1-729)
T1 construct: Norbin (Neurochondrin), rat, full-length construct; 98% identical to human Norbin; also called Neurochondrin; NCDN; source: M15 [pREP4] bacteria, inclusion bodies solubilized in 6 M guanidine hydrochloride, renatured by dialysis, purified; not shown: 6xHis, C-terminal, kept
T1 sequence (looked up): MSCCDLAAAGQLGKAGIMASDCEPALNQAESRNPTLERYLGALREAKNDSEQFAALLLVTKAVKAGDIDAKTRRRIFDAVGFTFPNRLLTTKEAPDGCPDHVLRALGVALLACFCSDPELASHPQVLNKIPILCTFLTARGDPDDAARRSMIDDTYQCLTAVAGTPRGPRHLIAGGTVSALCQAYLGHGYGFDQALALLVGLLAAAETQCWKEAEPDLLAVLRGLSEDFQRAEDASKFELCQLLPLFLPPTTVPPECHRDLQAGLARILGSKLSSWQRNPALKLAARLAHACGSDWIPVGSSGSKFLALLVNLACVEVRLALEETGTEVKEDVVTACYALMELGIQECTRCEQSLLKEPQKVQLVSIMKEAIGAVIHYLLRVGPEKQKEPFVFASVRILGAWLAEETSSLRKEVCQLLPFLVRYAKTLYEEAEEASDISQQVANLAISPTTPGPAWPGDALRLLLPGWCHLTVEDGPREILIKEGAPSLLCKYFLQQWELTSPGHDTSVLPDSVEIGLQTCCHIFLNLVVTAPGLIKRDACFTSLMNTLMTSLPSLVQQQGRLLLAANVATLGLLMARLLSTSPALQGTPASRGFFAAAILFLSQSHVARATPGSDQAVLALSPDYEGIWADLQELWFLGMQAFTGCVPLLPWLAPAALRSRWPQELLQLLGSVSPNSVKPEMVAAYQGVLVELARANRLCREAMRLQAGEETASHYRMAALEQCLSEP


Molecular target: T1, Recombinant His-Norbin (His-tagged rat …)
Experiment: pull-down; GST-tagged GPCR C-terminal tails (or GST) from bacterial lysates bound to glutathione Sepharose, washed twice in PBS, 2% Triton X-100, 5 mM DTT, incubated with 50 μg purified recombinant His-Norbin for 3 h at 4 °C, washed 3 x in PBS, 1% Triton X-100; western blot with His antibody
Settings: both partners purified

binding result	Binder
binds	GST-tagged C-terminal tail of human C5aR1 (domain or fragment, In pGEX4T3, cloned with BamH1 and Xho1; also called GST-C5aR1) INCCINPIIYVVAGQGFQGRLRKSLPSLLRNVLTEESVVRESKSFTRSTVDTMAQKTQAV
binds	GST-tagged C-terminal tail of human CXCR4 (domain or fragment, In pGEX6P1, cloned with BamH1 and Xho1; also called GST-CXCR4) FHCCLNPILYAFLGAKFKTSAQHALTSVSRGSSLKILSKGKRGGHSSVSTESESSSFHSS
binds	GST-tagged C-terminal tail of MCH1 (melanin-concentrating hormone receptor 1) (domain or fragment, In pGEX4T3; Positive control; also called GST-MCH1) ANSCLNPFVYIVLCETFRKRLVLSVKPAAQGQLRAVSNAQTADEERTESKGT

From article PMC11647504, “The GPCR adaptor protein Norbin controls the trafficking of C5aR1 and CXCR4 in mouse neutrophils” (The Journal of Biological Chemistry, 2024)
